Laboratory results from patent US20210332112A1.

Target: pertussis toxin (Bordetella pertussis) (UniProt P04977)
Assay: ELISA, plate coated with pertussis toxin, antibody titrated, detection with goat anti-human kappa constant domain-HRP [panel C]

hu1B7-YTE extended half-life antibody
EC50 (read off the curve): 0.04 µg/mL
